Assay: soluble on expression in E. coli; label from the status in PepcDB or PDB records

| Sequence | soluble on expression in E. coli |
| --- | --- |
| GGKFVQAWSQFPAGKWGVEPNPVSVVPTHGEVLNDGKVKEVPWVLELTPMPVSGTTVGKDGINPDEPMTLETVDRFAREIGFKGRYQLNLPKGEDGVWTLSQDSMSYDMISPFADRTVHIDQYSGKILADIRFDDYNPFGKFMAASIALHMGTLG | not soluble |
| GGVDSHSHIAGAKVNTGRTLRPEDSKKDLFSKEGLRQGSGFSIPSTFKTGYQYSGMGYTTVIEAAMPPLVARHTHEEFMDLPQIDKAAMPLFGNSWMVLEYLKNGDLSMCAAYVAWLLKVTKGYAIKIVNPGGTEAWGWGKNVHGLDDEVPYFGITPREIVTGLAKVNEMLGLPHSIHVHPNNLGHPGNWETTIDTMDCVKDIKAKPKFGDRDTVYYNTHLQFHSYGGTSWKDCVSKGVETADYVNKNKHVMIDVGQVTLDETTTMTADGPMEYDLHMTNGLKWANCDVELETGSGVVPFIYSPKGPVYSLQWAIGLDIFLYTQPEKLILTTDHPNAGPFVRYPRVIAWLLSKEYRNDWIQNRVHKWAAEKSHITETDREYSMYEIAQITRANSSKVLGLSGDRGHLGAGAKADISIYDIDPEEKSGKKIEKAFLEAAYVLKDGEIVVKNG | not soluble |
| GGWGFLASFAAGIGLRHAEVATLGRASAPAEAQAAAADVREAGQASGAIEYGADRSEHPKVAAGAVMLDVLSFGNLLERSLEVLLVTLLGAMLYQHWDWRA | not soluble |
| GHMGEEQYNRYQQYGAEECVLQMGGVLCPRPGCGAGLLPEPDQRKVTCEGGNGLGCGFAFCRECKEAYHEGECSAVFEAS | soluble |
| GHMGQSPDAPIADTPGEQQEINLYSSRHYNTDNELYAKFTAETGIKVNLIEGKADELLERIKSEGANSPADVLLTVDLARLWRAEEDGIFQPVQSEILETNVPEYLRSPDGMWFGFTKRARVIMYNKGKVKPEELSTYEELADPKWKGRVIIRSSSNEYNQSLVASLVVADGEESTLAWAKGFVSNFAREPQGNDTAQIEAVSSGEADLTLANTYYMGRLLESEDPAQKAIAENVGVFFPNQEGRGTHVNVSGVGVVKTAPNREGAVKFIEFLVSEPAQAFLAQNNYEYPVLAGVPLNKSVASFGEFKSDTTSLDKLGPALAPATKIMNEAGWK | soluble |
| GHMTWEHNEFMQMTVKPFLIPADKVAHVQPGNYLDHALLVLTKTGYSAIPVLDTSYKLHGLISMTMMMDAILGLERIEFERLETMKVEEVMNRNIPRLRLDDSLMKAVGLIVNHPFVCVENDDGYFAGIFTRREVLKQLNKQLHRPNGGRKLGRKEAEQ | soluble |
| GIDAAEYVLYGGKGGVGKTTCAAATALASARDDTATLVVSTDPAHSLSDTLDADIPATPTRIREDIPLYAAEIDPEAAVGEGPLGVEEDALGGVGELLGGDGMFGGGAGGAAGAGQAEDPIGGEEGLLGGSMPGADEAAALRLLLDYVDDDRFDRVVIDTAPTGHTLRLLELPETMDSMVGKILQLRERFSGMMDNLTGMFGDDQDVDAEAGIEDLQELSDRIEHLRGILQDPQRTDFRIVMVPEELSVVESERLLAQLGEFNIPVSTVVVNRVMQDPSEVLGEDVDIAGPNHADCEFCARRWQVQQDALARSQDMFRGHDVRRVPLFAEEVRGERLLSVVAACLD | not soluble |
| GIDPFTGIDPFTGTQACITAASAVSGIIADLDTTIMFATAGTLNREGAETFADHREGILKTAKVLVEDTKVLVQNAAGSQEKLAQAAQSSVATITRLADVVKLGAASLGAEDPETQVVLINAVKDVAKALGDLISATKAAAGKVGDDPAVWQLKNSAKVMVTNVTSLLKTVKAVEDEATKGTRALEATTEHIRQELAVFCSPEPPAKTSTPEDFIRMTKGITMATAKAVAAGNSCRQEDVIATANLSRRAIADMLRACKEAAFHPEVAPDVRLRALHYGRECANGYLELLDHVLLTLQKPNPDLKQQLTGHSKRVAGSVTELIQAAEAMKGT | soluble |
| GIDPFTQRLNFGDDIPSALRIAKKKRWNSIEEKRISQENELHAYLSKLILAEKERELDDRVKQSDDSQNGGDISKMKSKHDKYLMDMDELFSQVDEKRKKREIPDYLCGKISFELMREPCITPSGITYDRKDIEEHLQRVGHFDPVTRSPLTQDQLIPNLAMKEVIDAFIQENGWVEDY | soluble |
| GINAGKMAMIVTDKGEQVTKAINACCNRGSTILKGMGGYKMDKKEVVICACNNKEMFFVQQVVKEVDPAAFTVVLESNEVHGEGFKMFQIGEGNVTVQTGLRSCCADRAKMQRQ | not soluble |
| GISYSVEADPDTTAKAMLRERQMSFKHSKAIAREIKGKTAGEAVDYLEAVIEGDQPVPFKQHNSGVGHKSKVDGWDAGRYPEKASKAFLDLLENAVGNADHQGFDGEAMTIKHVAAHKVGEQQGRKPRAMGRASAWNSPQVDVELILEEPEVED | soluble |
| GKSDKIIPIAENKEAKAKYDILETYEAGIVLKGSEVKSLREKGTVSFKDSFVRIENGEAWLYNLYIAPYKHATIENHDPLRKRKLLLHKREIMRLYGKVQEKGYTIIPLKLYWKNNKVKVLIALAKGKKLYDRRRELKEKAMKRELEREFKGKIHL | soluble |
| GKTFPSRAYIDGTLSARVIAHEFGHNLGLSHAKALDCGDASVSNNCSVIEYGDSYDVMGTPDMGYINTYYKERMGWLNDAESPNILTATQDGLYEIAEYETQDITQNIALKIPRGVNPNSGLKEWFYVEYRQAMGYDQFLDDRSYMLFRGDVTDGVIVRLVEEGAEESYILHMKPNSDYSQVYGRKDWKDTALPVGDSFTDP | not soluble |
| GKVGDRPIEQQLALGYIKALTEHDYQTLSKYYNRDSVFYDKTADTKYIGTRSIIAFLQRSHEGVLEFDFNIEHMFNTGPLVVMIGNYHLRGPGEQFGKPGKIIDIAIPGVTTLKFDPNTQRLTEQVDLMDYQTMSDQLQSQ | soluble |
| GLEYRFSKSKQALELTSLRLKEKSEQLEHSQRVAIVGEIGSSLAHELNQPLAAIRNYSEGGLLRLAKKRPHEDIVPVLEKIQGQVERADAIIQRLRTLIRKRSVDKTPCDIQALIADTIELLHFRMQKQNVAIVTSVEGEIRPLLADSVGVQQVLVNVINNAIDACALFQEKYHSSGYQGKIALHCDYQANQLSIRILDNGTGLQQENPTQAFVSSKAEGLGLGLAICRDVMEMHGGEFLIASTTPHGCLVELVFPYQN | not soluble |
| GLGGFTRTRNKGKSNVIDMIQKYIESKGMPIENWDITVGYCTNLEEAEKYRDDVEAQLGVKLLERREDFKTRISIISGCHTGPYALGIACIPKYTTIRL | not soluble |
| GLIDAHGHVIGYGHSLLRVDLVNATSELDAVNRTISYAKDNPSMSWILGRGWNQVQWSNNSYPNAKSLDEAFPNKPVWLRRVDGHAGWANSKAMALAGITSASKAPVGGDIIKDKNGLPTGIFIDNAMTLITASITPPSPMEDKIALKRAMHSLASLGLTSVHDAGIEQKDIALYKTLASEGNMTIRINGMLYLPSTNWQQQLEQGPYRTEDEMFAVNSVKIQADGALGSRGASLINDYSDHSGHKGLLLHDKKSLQHYIDFAMNAGFQVNTHAIGDNANKLILDLYQQAIQKSQTKALRHRIEHAQVLRLEDISRFSSLNVIASMQATHATSDKNMAVTRLGGKRILGAYAWRKLLDSNTIIAAGSDFPVESPNPFFGLHASITRQDHKDLPIGGWYADQKMTRTEALRSFTIDAAYAGHQEKLIGSLEAGKKADFILLADDLLTMPESTIWQSQVSQTWVAGKKVFSAIDVPSVE | not soluble |
| GMAEEKKKKLSIIVFSGTIDKLMPVGILTSGAAASGYEVNLFFTFWGLQAITKRSLNSQQPPQIDKNYEQMGPIMMQKMQEMKYPMWHQLVQQAKEIGEVKVFACSTTMEFFGIKREDLAEFVDDVVGVATFLDRAEGGTTLFI | soluble |
| GMDNSEEKKLEALGAFEISRKMLALAQKNEKSNIFLNAGRGNPNWIQTLARLAFVRLVQFGVTESKLTINNGIMAGYINTDGIRERLFAFLDPDKNDEDKFLIDAVNYCHTELGLNRDKVVAEWVNGAVANNYPVPDRCLVNTEKIINYFLQELSYKDANLAEQTDLFPTEGGTAAIVYAFHSLAENHLLKKGDKIAINEPIFTPYLRIPELKDYELVEVDLHSYEKNDWEIEPNEIEKLKDPSIKALIVVNPTNPTSKEFDTNALNAIKQAVEKNPKLMIISDEVYGAFVPNFKSIYSVVPYNTMLVYSYSKLFGCTGWRLGVIALNEKNVFDDNIAHLDKVELRQLHKRYSSVVLDPDKMKFIDRLCADSRSIGLYHTAGLSTPQQIMEALFSMTHLLTSTNGGSDDPYIDIARKLVSERYDQLHDAMQAPKDETDTNTHYYSLIDIYRLAEKIYGKEFRDYLTNNFEQVDFLLKLAEKNGVVLVDGVGFGAKPGELRVSQANLPTEDYALIGKQVLELLKEYYEEFKQNN | soluble |
| GMECRPLCIDDLELVCRHREAMFREAGRDALTLAAMQDPFRDWLLPRLADGSYFGWVMEEGGAPLAGIGLMVIEWPPHPSHPLQDKRGYILNLYVDPSHRERGIGQALMNRAEAEFAERGIAFAVLHATEMGQPLYARMGWSPTTEMSKPIAG | soluble |
| GMEFLMKISHLDHLVLTVADIPTTTKFYEKVLGMKAVSFGSGRIALEFGHQKINLHQLGHEFEPKAQNVRTGSADLCFITDIDLSDAMEYVENQGVVIMEGPVKRTGAQGAITSFYFRDPDGNLIEVSTYSNT | soluble |
| GMENELEDKILAILEQHQVGVLTSVQGDFPHARYMTFLHDGLTLYTPSGKELPKTEEVRRNPHVCVLIGYDSPGSAFLEINGLASLEEDESIKERIWENISKDWFQGEDSPSFVVIKIVPEQIRILNS | soluble |
| GMHSALQLRSRIKSSGELELSLDSIDTPHPGPDEVLIRIEASPLNPSDLGLLFGAADMSTAKASGTAERPIVTARVPEGAMRSMAGRLDASMPVGNEGAGVVVEAGSSPAAQALMGKTVAAIGGAMYSQYRCIPADQCLVLPEGATPADGASSFVNPLTALGMVETMRLEGHSALVHTAAASNLGQMLNQICLKDGIKLVNIVRKQEQADLLKAQGAVHVCNAASPTFMQDLTEALVSTGATIAFDATGGGKLGGQILTCMEAALNKSAREYSRYGSTTHKQVYLYGGLDTSPTEFNRNFGMAWGMGGWLLFPFLQKIGRERANALKQRVVAELKTTFASHYSKEISLAEVLDLDMIAVYNKRATGEKYLINPNKGLAG | soluble |
| GMKIEHVALWTTNLEQMKQFYVTYFGATANDLYENKTKGFNSYFLSFEDGARLEIMSRTDVTGKTTGENLGWAHIAISTGTKEAVDELTEKLRQDGFAIAGEPRMTGDGYYESVVLDPEGNRIEITW | soluble |
| GMLKSKIKEEYVQMDQVDWKPFPAAFSTGGIRWKLLHVSPEMGSWTAIFDCPAGSSFAAHVHVGPGEYFLTKGKMDVRGGKAAGGDTAIAPGYGYESANARHDKTEFPVASEFYMSFLGPLTFVKPDGSPIAVIGWEDAQGAWAA | soluble |
| GMMQKPITEIIIVGGGTAGWITAGLLAAEHNVDKGVLAHSPKLNITLIESPDVATIGVGEGTWPSMRSTLSKIGIDENDFIRQCDASFKQGSRFINWCKDPQSNVADSYLHPFSLPHGHQELDLCPYWLPHAEQVSFAEAVCSQQVLTQLGLAPKSIVTAQYHFQNNYGYHLNAAKFSQLLTEHCTQKLGVTHIRDHVSQIINNQHGDIEKLITKQNGEISGQLFIDCTGAKSLLLGEHLQVPFLSQKSVLFNDRALAIQVPYSDANSPIASCTHSTAQPNGWIWDIGLPTRKGVGYVYSSSHTNDIDAQKTLFNYLGVDGAAADKLEPRQLAINPGYRAKCWQNNCIAIGMAAGFIEPLEASALALIEWTASTLAQQLPPNRMVMDTISARVNERYQQHWQQIIDFLKLHYVISQRQEDRYWRDHRESNSIPDSLQAMLELWRYQTPSQQDISYKEALFPAASFQYVLYGMSFNTQLPTHVKPSMQQLAQRLFNDNQQRTQALSKNLPTNRELLDKVAQYGFPKL | soluble |

— the DeepSol protein solubility set
